Data reported in patent US20180155451A1 (published 2018).

target: T1, FcγRIIIa extracellular domain with C-terminal His tag (human, UniProt P08637 17-208); assay: SPR (Biacore), antibody captured on antigen-peptide chip, FcγR analyte, relative binding
T1 construct: extracellular domain; also called 3a; FcgRIIIa
T1 sequence (P08637 17-208): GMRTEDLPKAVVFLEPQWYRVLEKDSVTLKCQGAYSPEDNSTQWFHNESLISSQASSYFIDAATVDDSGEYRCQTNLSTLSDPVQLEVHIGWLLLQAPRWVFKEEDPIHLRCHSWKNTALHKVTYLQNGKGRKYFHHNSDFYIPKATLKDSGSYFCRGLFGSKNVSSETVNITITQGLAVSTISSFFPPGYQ

| Ho/Con_3a | He/Con_3a | Binder |
| --- | --- | --- |
| 146 % of GpH7-B3/GpL16-k0 (=100) | – | GpH7-B3 variant Y296_20W/GpL16-k0 (homodimerized antibody, Ho Ab) (antibody, human IgG1, kappa, Mutation in both H chains; also called Y296_20W Ho Ab) heavy: not shown light: DIVMTQSPLSLPVTPGEPASISCQASESLVHSNRNTYLHWYLQKPGQSPQLLIYKVSNRFSGVPDRFSGSGSGTDFTLKISRVEAEDVGVYYCSQNTHVPPTFGQGTKVEIERTVAAPSVFIFPPSDEQLKSGTASVVCLLNNFYPREAKVQWKVDNALQSGNSQESVTEQDSKDSTYSLSSTLTLSKADYEKHKVYACEVTHQGLSSPVTKSFNRGEC |
| – | 105 % of GpH7-A5/GpH7-B3/GpL16-k0 (=100) | GpH7-A5/GpH7-B3 variant S324_01G/GpL16-k0 (heterodimerized antibody, He Ab) (antibody, human IgG1, kappa, Mutation in one H chain only; also called S324_01G He Ab) heavy 1: not shown heavy 2: not shown light: DIVMTQSPLSLPVTPGEPASISCQASESLVHSNRNTYLHWYLQKPGQSPQLLIYKVSNRFSGVPDRFSGSGSGTDFTLKISRVEAEDVGVYYCSQNTHVPPTFGQGTKVEIERTVAAPSVFIFPPSDEQLKSGTASVVCLLNNFYPREAKVQWKVDNALQSGNSQESVTEQDSKDSTYSLSSTLTLSKADYEKHKVYACEVTHQGLSSPVTKSFNRGEC |
| – | 103 % of GpH7-A5/GpH7-B3/GpL16-k0 (=100) | GpH7-A5/GpH7-B3 variant S324_14T/GpL16-k0 (heterodimerized antibody, He Ab) (antibody, human IgG1, kappa, Mutation in one H chain only; also called S324_14T He Ab) heavy 1: not shown heavy 2: not shown light: DIVMTQSPLSLPVTPGEPASISCQASESLVHSNRNTYLHWYLQKPGQSPQLLIYKVSNRFSGVPDRFSGSGSGTDFTLKISRVEAEDVGVYYCSQNTHVPPTFGQGTKVEIERTVAAPSVFIFPPSDEQLKSGTASVVCLLNNFYPREAKVQWKVDNALQSGNSQESVTEQDSKDSTYSLSSTLTLSKADYEKHKVYACEVTHQGLSSPVTKSFNRGEC |
| – | 110 % of GpH7-A5/GpH7-B3/GpL16-k0 (=100) | GpH7-A5/GpH7-B3 variant S239_18N/GpL16-k0 (heterodimerized antibody, He Ab) (antibody, human IgG1, kappa, Mutation in one H chain only; also called S239_18N He Ab) heavy 1: not shown heavy 2: not shown light: DIVMTQSPLSLPVTPGEPASISCQASESLVHSNRNTYLHWYLQKPGQSPQLLIYKVSNRFSGVPDRFSGSGSGTDFTLKISRVEAEDVGVYYCSQNTHVPPTFGQGTKVEIERTVAAPSVFIFPPSDEQLKSGTASVVCLLNNFYPREAKVQWKVDNALQSGNSQESVTEQDSKDSTYSLSSTLTLSKADYEKHKVYACEVTHQGLSSPVTKSFNRGEC |
| – | 102 % of GpH7-A5/GpH7-B3/GpL16-k0 (=100) | GpH7-A5/GpH7-B3 variant S324_20W/GpL16-k0 (heterodimerized antibody, He Ab) (antibody, human IgG1, kappa, Mutation in one H chain only; also called S324_20W He Ab) heavy 1: not shown heavy 2: not shown light: DIVMTQSPLSLPVTPGEPASISCQASESLVHSNRNTYLHWYLQKPGQSPQLLIYKVSNRFSGVPDRFSGSGSGTDFTLKISRVEAEDVGVYYCSQNTHVPPTFGQGTKVEIERTVAAPSVFIFPPSDEQLKSGTASVVCLLNNFYPREAKVQWKVDNALQSGNSQESVTEQDSKDSTYSLSSTLTLSKADYEKHKVYACEVTHQGLSSPVTKSFNRGEC |
| – | 102 % of GpH7-A5/GpH7-B3/GpL16-k0 (=100) | GpH7-A5/GpH7-B3 variant S337_01G/GpL16-k0 (heterodimerized antibody, He Ab) (antibody, human IgG1, kappa, Mutation in one H chain only; also called S337_01G He Ab) heavy 1: not shown heavy 2: not shown light: DIVMTQSPLSLPVTPGEPASISCQASESLVHSNRNTYLHWYLQKPGQSPQLLIYKVSNRFSGVPDRFSGSGSGTDFTLKISRVEAEDVGVYYCSQNTHVPPTFGQGTKVEIERTVAAPSVFIFPPSDEQLKSGTASVVCLLNNFYPREAKVQWKVDNALQSGNSQESVTEQDSKDSTYSLSSTLTLSKADYEKHKVYACEVTHQGLSSPVTKSFNRGEC |
| – | 113 % of GpH7-A5/GpH7-B3/GpL16-k0 (=100) | GpH7-A5/GpH7-B3 variant S324_06M/GpL16-k0 (heterodimerized antibody, He Ab) (antibody, human IgG1, kappa, Mutation in one H chain only; also called S324_06M He Ab) heavy 1: not shown heavy 2: not shown light: DIVMTQSPLSLPVTPGEPASISCQASESLVHSNRNTYLHWYLQKPGQSPQLLIYKVSNRFSGVPDRFSGSGSGTDFTLKISRVEAEDVGVYYCSQNTHVPPTFGQGTKVEIERTVAAPSVFIFPPSDEQLKSGTASVVCLLNNFYPREAKVQWKVDNALQSGNSQESVTEQDSKDSTYSLSSTLTLSKADYEKHKVYACEVTHQGLSSPVTKSFNRGEC |
| – | 108 % of GpH7-A5/GpH7-B3/GpL16-k0 (=100) | GpH7-A5/GpH7-B3 variant S337_16H/GpL16-k0 (heterodimerized antibody, He Ab) (antibody, human IgG1, kappa, Mutation in one H chain only; also called S337_16H He Ab) heavy 1: not shown heavy 2: not shown light: DIVMTQSPLSLPVTPGEPASISCQASESLVHSNRNTYLHWYLQKPGQSPQLLIYKVSNRFSGVPDRFSGSGSGTDFTLKISRVEAEDVGVYYCSQNTHVPPTFGQGTKVEIERTVAAPSVFIFPPSDEQLKSGTASVVCLLNNFYPREAKVQWKVDNALQSGNSQESVTEQDSKDSTYSLSSTLTLSKADYEKHKVYACEVTHQGLSSPVTKSFNRGEC |
| – | 109 % of GpH7-A5/GpH7-B3/GpL16-k0 (=100) | GpH7-A5/GpH7-B3 variant S298_03V/GpL16-k0 (heterodimerized antibody, He Ab) (antibody, human IgG1, kappa, Mutation in one H chain only; also called S298_03V He Ab) heavy 1: not shown heavy 2: not shown light: DIVMTQSPLSLPVTPGEPASISCQASESLVHSNRNTYLHWYLQKPGQSPQLLIYKVSNRFSGVPDRFSGSGSGTDFTLKISRVEAEDVGVYYCSQNTHVPPTFGQGTKVEIERTVAAPSVFIFPPSDEQLKSGTASVVCLLNNFYPREAKVQWKVDNALQSGNSQESVTEQDSKDSTYSLSSTLTLSKADYEKHKVYACEVTHQGLSSPVTKSFNRGEC |
| – | 108 % of GpH7-A5/GpH7-B3/GpL16-k0 (=100) | GpH7-A5/GpH7-B3 variant T335_09D/GpL16-k0 (heterodimerized antibody, He Ab) (antibody, human IgG1, kappa, Mutation in one H chain only; also called T335_09D He Ab) heavy 1: not shown heavy 2: not shown light: DIVMTQSPLSLPVTPGEPASISCQASESLVHSNRNTYLHWYLQKPGQSPQLLIYKVSNRFSGVPDRFSGSGSGTDFTLKISRVEAEDVGVYYCSQNTHVPPTFGQGTKVEIERTVAAPSVFIFPPSDEQLKSGTASVVCLLNNFYPREAKVQWKVDNALQSGNSQESVTEQDSKDSTYSLSSTLTLSKADYEKHKVYACEVTHQGLSSPVTKSFNRGEC |
| – | 181 % of GpH7-A5/GpH7-B3/GpL16-k0 (=100) | GpH7-A5/GpH7-B3 variant S239_10E/GpL16-k0 (heterodimerized antibody, He Ab) (antibody, human IgG1, kappa, Mutation in one H chain only; also called S239_10E He Ab) heavy 1: not shown heavy 2: not shown light: DIVMTQSPLSLPVTPGEPASISCQASESLVHSNRNTYLHWYLQKPGQSPQLLIYKVSNRFSGVPDRFSGSGSGTDFTLKISRVEAEDVGVYYCSQNTHVPPTFGQGTKVEIERTVAAPSVFIFPPSDEQLKSGTASVVCLLNNFYPREAKVQWKVDNALQSGNSQESVTEQDSKDSTYSLSSTLTLSKADYEKHKVYACEVTHQGLSSPVTKSFNRGEC |
| – | 102 % of GpH7-A5/GpH7-B3/GpL16-k0 (=100) | GpH7-A5/GpH7-B3 variant T335_06M/GpL16-k0 (heterodimerized antibody, He Ab) (antibody, human IgG1, kappa, Mutation in one H chain only; also called T335_06M He Ab) heavy 1: not shown heavy 2: not shown light: DIVMTQSPLSLPVTPGEPASISCQASESLVHSNRNTYLHWYLQKPGQSPQLLIYKVSNRFSGVPDRFSGSGSGTDFTLKISRVEAEDVGVYYCSQNTHVPPTFGQGTKVEIERTVAAPSVFIFPPSDEQLKSGTASVVCLLNNFYPREAKVQWKVDNALQSGNSQESVTEQDSKDSTYSLSSTLTLSKADYEKHKVYACEVTHQGLSSPVTKSFNRGEC |
| – | 101 % of GpH7-A5/GpH7-B3/GpL16-k0 (=100) | GpH7-A5/GpH7-B3 variant S324_09D/GpL16-k0 (heterodimerized antibody, He Ab) (antibody, human IgG1, kappa, Mutation in one H chain only; also called S324_09D He Ab) heavy 1: not shown heavy 2: not shown light: DIVMTQSPLSLPVTPGEPASISCQASESLVHSNRNTYLHWYLQKPGQSPQLLIYKVSNRFSGVPDRFSGSGSGTDFTLKISRVEAEDVGVYYCSQNTHVPPTFGQGTKVEIERTVAAPSVFIFPPSDEQLKSGTASVVCLLNNFYPREAKVQWKVDNALQSGNSQESVTEQDSKDSTYSLSSTLTLSKADYEKHKVYACEVTHQGLSSPVTKSFNRGEC |
| 105 % of GpH7-B3/GpL16-k0 (=100) | – | GpH7-B3 variant Y300_08L/GpL16-k0 (homodimerized antibody, Ho Ab) (antibody, human IgG1, kappa, Mutation in both H chains; also called Y300_08L Ho Ab) heavy: not shown light: DIVMTQSPLSLPVTPGEPASISCQASESLVHSNRNTYLHWYLQKPGQSPQLLIYKVSNRFSGVPDRFSGSGSGTDFTLKISRVEAEDVGVYYCSQNTHVPPTFGQGTKVEIERTVAAPSVFIFPPSDEQLKSGTASVVCLLNNFYPREAKVQWKVDNALQSGNSQESVTEQDSKDSTYSLSSTLTLSKADYEKHKVYACEVTHQGLSSPVTKSFNRGEC |
| – | 105 % of GpH7-A5/GpH7-B3/GpL16-k0 (=100) | GpH7-A5/GpH7-B3 variant T335_05P/GpL16-k0 (heterodimerized antibody, He Ab) (antibody, human IgG1, kappa, Mutation in one H chain only; also called T335_05P He Ab) heavy 1: not shown heavy 2: not shown light: DIVMTQSPLSLPVTPGEPASISCQASESLVHSNRNTYLHWYLQKPGQSPQLLIYKVSNRFSGVPDRFSGSGSGTDFTLKISRVEAEDVGVYYCSQNTHVPPTFGQGTKVEIERTVAAPSVFIFPPSDEQLKSGTASVVCLLNNFYPREAKVQWKVDNALQSGNSQESVTEQDSKDSTYSLSSTLTLSKADYEKHKVYACEVTHQGLSSPVTKSFNRGEC |
| – | 102 % of GpH7-A5/GpH7-B3/GpL16-k0 (=100) | GpH7-A5/GpH7-B3 variant T335_08L/GpL16-k0 (heterodimerized antibody, He Ab) (antibody, human IgG1, kappa, Mutation in one H chain only; also called T335_08L He Ab) heavy 1: not shown heavy 2: not shown light: DIVMTQSPLSLPVTPGEPASISCQASESLVHSNRNTYLHWYLQKPGQSPQLLIYKVSNRFSGVPDRFSGSGSGTDFTLKISRVEAEDVGVYYCSQNTHVPPTFGQGTKVEIERTVAAPSVFIFPPSDEQLKSGTASVVCLLNNFYPREAKVQWKVDNALQSGNSQESVTEQDSKDSTYSLSSTLTLSKADYEKHKVYACEVTHQGLSSPVTKSFNRGEC |
